Where two headings read alike, the source gives them in different places.
How the values were obtained:
deaminase PA3170 = assay: Deamination of 5DOA by PA3170; format: biochemical, Pseudomonas aeruginosa
Excerpt: FIG. 3A-3C. The reaction catalyzed by deaminase PA3170 and its use as a coupling enzyme for monitoring radical SAM (RS) enzymes activity. (A) The 5′-deoxy-adenosine (5DOA) by-product of radical SAM enzyme reactions is efficiently converted into its inosyl-derivative (5DOI) by the deaminase PA3170. (B) The […] conversion is confirmed by HPLC as these two molecules have distinct retention times. The different spectral signatures between 5DOA and 5DOI (λmax1=259 nm and λmax2=249 nm, respectively) allow continuous monitoring of […] through UV-detection.

GNMT = GNMT (Rattus norvegicus, UniProt P13255); settings: cited from earlier work
GNMT, sequence (P13255 whole entry): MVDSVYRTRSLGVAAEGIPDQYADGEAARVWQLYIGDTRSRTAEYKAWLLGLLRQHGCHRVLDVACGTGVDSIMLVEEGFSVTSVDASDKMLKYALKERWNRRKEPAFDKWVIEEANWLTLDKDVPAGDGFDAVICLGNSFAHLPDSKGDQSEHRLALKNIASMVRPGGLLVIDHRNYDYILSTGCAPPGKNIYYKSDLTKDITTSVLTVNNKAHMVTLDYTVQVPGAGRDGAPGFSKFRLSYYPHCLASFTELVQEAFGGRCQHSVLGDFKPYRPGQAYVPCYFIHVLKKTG

GsSDMT = biological target: T1, GsSDMT (Galdieria sulphuraria, UniProt M2XPA0); assay: GsSDMT inhibition by sinefungin (UV-mode); format: biochemical; settings: pH=6.80, SAM 763 μM, sarcosine 5 mM, 195 nM GsSDMT; read-out: inhibition constant Ki
T1 sequence (M2XPA0 2-297): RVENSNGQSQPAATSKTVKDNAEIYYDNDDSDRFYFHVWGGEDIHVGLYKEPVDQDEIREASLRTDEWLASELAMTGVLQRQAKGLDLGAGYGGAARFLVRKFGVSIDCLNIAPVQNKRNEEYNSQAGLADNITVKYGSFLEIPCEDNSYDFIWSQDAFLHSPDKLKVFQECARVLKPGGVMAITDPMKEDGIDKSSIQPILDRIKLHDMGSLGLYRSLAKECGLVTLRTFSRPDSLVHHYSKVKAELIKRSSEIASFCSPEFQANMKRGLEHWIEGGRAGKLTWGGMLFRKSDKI
Procedure: Briefly, kinetic parameters were determined at 20° C. in a UV-Star 96-well flat bottom plate (Greiner Bio-One, #655801) by continuous monitoring of absorbance at 263 nm using a SpectraMax M5 instrument (Molecular Devices). The 100-μL reaction mixtures from a set of two rows contained 100 mM phosphate buffer pH=6.80, 1 mM βME, 5% glycerol, […] MgCl2, 4 μM coupling deaminase TM0936, 195 nM GsSDMT, saturating level of SAM (763 μM) and various sinefungin concentrations (0.8-244 μM). In the first row, the sarcosine acceptor was omitted to account for background signal (i.e. natural catabolism of sinefungin and SAM decomposition). The methyltransfer reactions started upon addition of sarcosine (5 mM saturating final concentration). Volumes (60-μL) were transferred onto plate and absorbance signals were recorded. The initial rates of the reactions were corrected using data from first row experiments and plotted against sinefungin concentrations. Fit to the following Eq. 7 provided corresponding inhibition constant (Ki):
where V and V0 are the initial velocity with and without inhibitor, respectively. The Michelis constant for SAM substrate is depicted as Km and [SAM] is the concentration of this same molecule. The inhibition constant for sinefungin is represented by Ki and [SIN] is the concentration of this inhibitor. The parameter γ is the Hill coefficient. […]

NcDIM-5 [1] = biological target: T2, NcDIM-5 (Neurospora crassa, UniProt Q8X225); assay: Reported (literature) NcDIM-5 kinetics; format: biochemical; settings: from reported values lit. (53)
T2 construct: GST; made in house
T2 sequence (Q8X225 1-331): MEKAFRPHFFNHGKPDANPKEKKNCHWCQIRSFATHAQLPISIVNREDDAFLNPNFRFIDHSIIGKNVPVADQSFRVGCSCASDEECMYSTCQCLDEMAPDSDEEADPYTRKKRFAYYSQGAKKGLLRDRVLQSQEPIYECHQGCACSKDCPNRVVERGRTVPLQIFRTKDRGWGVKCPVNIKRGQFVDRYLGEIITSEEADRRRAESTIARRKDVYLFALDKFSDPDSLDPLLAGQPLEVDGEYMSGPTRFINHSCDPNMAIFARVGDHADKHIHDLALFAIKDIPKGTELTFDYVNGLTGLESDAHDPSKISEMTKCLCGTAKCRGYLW

NcDIM-5 [2] = biological target: T2, NcDIM-5; settings: literature values; cited from earlier work
CePRMT5 [3] = biological target: T3, CePRMT5 (Caenorhabditis elegans, UniProt P46580); assay: 1-Step EZ-MTase UV-based coupled assay, CePRMT5 kinetics; format: biochemical; settings: pH=7.60, co-substrate saturating, 4 μM TM0936; 263 nm (282 nm for 8-aza-SAM)
T3 construct: made in house
T3 sequence (P46580 1-734): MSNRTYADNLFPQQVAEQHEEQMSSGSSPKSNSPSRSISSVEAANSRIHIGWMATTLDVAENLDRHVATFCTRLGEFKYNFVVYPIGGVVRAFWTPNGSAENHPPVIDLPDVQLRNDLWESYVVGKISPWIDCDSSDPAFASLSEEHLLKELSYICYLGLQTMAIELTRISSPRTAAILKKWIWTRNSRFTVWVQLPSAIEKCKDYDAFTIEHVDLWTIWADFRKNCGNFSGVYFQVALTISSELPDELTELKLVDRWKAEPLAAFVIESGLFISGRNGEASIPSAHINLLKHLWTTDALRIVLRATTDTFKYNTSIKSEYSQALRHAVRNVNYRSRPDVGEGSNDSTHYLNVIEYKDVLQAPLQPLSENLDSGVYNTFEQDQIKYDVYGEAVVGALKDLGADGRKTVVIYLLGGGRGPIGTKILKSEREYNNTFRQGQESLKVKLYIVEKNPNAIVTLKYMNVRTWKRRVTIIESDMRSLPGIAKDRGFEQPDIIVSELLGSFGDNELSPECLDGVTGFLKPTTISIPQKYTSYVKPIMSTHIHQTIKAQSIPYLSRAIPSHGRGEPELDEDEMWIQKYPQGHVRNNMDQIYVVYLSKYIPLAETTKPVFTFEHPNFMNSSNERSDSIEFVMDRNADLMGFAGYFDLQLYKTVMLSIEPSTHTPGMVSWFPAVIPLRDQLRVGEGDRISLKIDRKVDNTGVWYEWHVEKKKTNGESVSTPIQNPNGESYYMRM
Procedure: The 250-μL reaction mixtures from a same row contained 50 mM phosphate buffer pH=7.60, 1 mM βME, 10% glycerol, 4 μM coupling deaminase TM0936, 300 nM CePRMT5 and various peptide concentrations (5-180 μM; in the first well, peptide acceptor was omitted to account for background signal—natural decomposition of SAM). The methyltransfer reactions started upon addition of SAM (25 μM saturating final concentration) and absorbance was recorded.
The 250-μL reaction mixtures from a same row contained 50 mM phosphate buffer pH=7.60, 1 mM βME, 10% glycerol, 4 μM coupling deaminase TM0936, 300 nM CePRMT5 and various SAM concentrations (2.35-47.0 μM). […] Initial rates were first corrected for background signal, then plotted against SAM concentrations and fitted to the Morrison kinetic model to yield corresponding kinetic parameters.
(§1) Kinetic behavior for 8-aza-SAM against MTases (acceptor sat.)—Briefly, kinetic parameters were determined at 20° C. in a UV-Star 96-well flat bottom plate (Greiner Bio-One, #655801) by continuous monitoring of absorbance at 282 nm using a SpectraMax M5 instrument (Molecular Devices). As for SAM experiments, the measurements consisted of two experimental subsets: MTase reactions (both 8-aza-SAM and acceptor added) and MTase blanks (8-aza-SAM was added without acceptor to account for natural 8-aza-SAM decomposition). The 250-μL (60-μL) reaction mixtures from a same row contained 50 mM phosphate buffer pH=7.60 (7.80), 1 mM βME, 10% glycerol (5% glycerol, 100 μM MgCl2), 4 μM coupling deaminase TM0936, either 1.5 μM CePRMT5 or 402 nM TbPRMT7 (or 610 nM GsSDMT) and various 8-aza-SAM concentrations. […] Initial rates were first corrected for background signal, then plotted against 8-aza-SAM concentrations and fitted to the Michaelis-Menten equation to yield corresponding kinetic parameters.

TbPRMT7 [4] = biological target: T4, TbPRMT7 (Trypanosoma brucei brucei, UniProt Q582G4); assay: 1-Step EZ-MTase UV-based coupled assay, TbPRMT7 kinetics (incl. ionic strength); format: biochemical; settings: pH=7.60, 25 mM phosphate, co-substrate saturating
T4 construct: made in house
T4 sequence (Q582G4 whole entry): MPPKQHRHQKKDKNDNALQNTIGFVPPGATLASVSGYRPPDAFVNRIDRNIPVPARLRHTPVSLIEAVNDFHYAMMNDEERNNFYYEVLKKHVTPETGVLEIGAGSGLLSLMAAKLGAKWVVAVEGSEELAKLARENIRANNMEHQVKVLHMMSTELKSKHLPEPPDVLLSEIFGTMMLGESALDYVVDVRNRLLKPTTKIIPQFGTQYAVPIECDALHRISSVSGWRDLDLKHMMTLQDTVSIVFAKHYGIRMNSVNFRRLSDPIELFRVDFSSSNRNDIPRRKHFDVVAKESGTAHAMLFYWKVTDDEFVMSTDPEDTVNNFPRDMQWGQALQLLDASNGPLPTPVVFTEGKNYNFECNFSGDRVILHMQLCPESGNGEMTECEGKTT
Procedure: Briefly, the 250-μL reaction mixtures from a same row contained 25 mM phosphate buffer pH=7.60, 1 mM βME, 10% glycerol, 4 μM coupling deaminase TM0936, 1.0 μM TbPRMT7 and various peptide concentrations (16.6-243.3 μM; in the first well, peptide acceptor was omitted to account for background signal—natural decomposition of SAM). Reactions started upon addition of SAM (25.8 μM saturating final concentration) and absorbance was recorded. […] Fit to the Michaelis-Menten model (Eq. 5) provided corresponding kinetic parameters:
Briefly, the measurements consisted of two experimental subsets: MTase reactions (both SAM and peptide added) and MTase blanks (SAM was added without peptide to account for natural SAM decomposition). The 250-μL reaction mixtures from a same row contained 25 mM phosphate buffer pH=7.60, 1 mM βME, 10% glycerol, 4 μM coupling deaminase TM0936, 402 nM TbPRMT7 and various SAM concentrations (1.53-20.0 μM). […] Initial rates were first corrected for background signal, then plotted against SAM concentrations and fitted to the Morrison kinetic model to yield corresponding kinetic parameters.
as §1, with “parameters. The kinetic data from CePRMT5 were fit to the following Eq. 6 to reflect substrate inhibition observed at higher 8-aza-SAM concentration:” for “parameters.”
Experiments were conducted following TbPRMT7 protocol above. Briefly, the 250-μL reaction mixtures from a same row contained either 25, 50, 75 or 100 mM phosphate buffer pH=7.60, 1 mM βME, 10% glycerol, 4 μM coupling deaminase TM0936, 1.0 μM TbPRMT7 and various peptide concentrations (16.6-243.3 μM; in the first well, peptide acceptor was omitted to account for background signal—natural decomposition of SAM). Reactions started upon addition of SAM (25.8 μM saturating final concentration) and absorbance was recorded. […] The four fits to the Michaelis-Menten equation (kcat fixed at 29 h^−1) provided corresponding Km values and established impact of ionic strength onto this kinetic parameter.

TbPRMT7 [5] = biological target: T4, TbPRMT7; assay: Fluorescence-based coupled assay, TbPRMT7 with 8-aza-SAM cofactor; format: biochemical; settings: 8-aza-SAM 25.0 μM, pH=7.60, fluorescence-mode
Procedure: Briefly, the 250-μL reaction mixtures from a same row contained 25 mM phosphate buffer pH=7.60, 1 mM βME, 10% glycerol, 4 μM coupling deaminase TM0936, 805.2 nM TbPRMT7 and various peptide concentrations (0-144.55 μM. The first well contained only 8-aza-SAM without any coupling enzyme, nor methyltransferase; in the second well, peptide acceptor was omitted to account for background signal—natural decomposition of 8-aza-SAM). […]

CePRMT5 [6] = biological target: T3, CePRMT5; settings: lit. (46); cited from earlier work

C[C@H]1O[C@@H](n2cnc3c(N)ncnc32)[C@H](O)[C@@H]1O [5DOA, 5′-deoxy-adenosine]
conversion into 5DOI by PA3170 (deaminase PA3170): full conversion

NCC(=O)O [glycine]
Km (GNMT): 130 µM

Nc1ncnc2c1ncn2[C@@H]1O[C@H](C[C@@H](N)CC[C@H](N)C(=O)O)[C@@H](O)[C@H]1O [sinefungin]
Ki (GsSDMT): 1800 ± 400 nM

H3(1-20): H3(1-20) peptide harboring a N-terminal biotinylation, from previous report
overall catalytic efficiency (NcDIM-5 [1]): 19 µM⁻¹ h⁻¹ | Km (NcDIM-5 [2]): 7.4 µM | kcat (NcDIM-5 [2]): 0.0383 s⁻¹

H4(1-20): H4(1-20) peptide substrate for CePRMT and TbPRMT7, purchased from GenScript
Km (CePRMT5 [3]): 26 ± 2 µM | kcat (CePRMT5 [3]): 0.00914 ± 0.00022 s⁻¹ | Km (TbPRMT7 [4]): 39 ± 3 µM | kcat (TbPRMT7 [4]): 0.00783 ± 0.00019 s⁻¹ | Km (TbPRMT7 [5]): 71 ± 8 µM | kcat (TbPRMT7 [5]): 0.0108 ± 0.00056 s⁻¹ | Km (CePRMT5 [6]): 54 ± 4 µM | kcat (CePRMT5 [6]): 0.00794 ± 0.00019 s⁻¹
